According to patent US5677146:

Legend:
[1] = biological target: T1, Cathepsin G, purified at Novo Nordisk A/S using the method of Baugh and Travis
T1 sequence (P08311 21-244, species assumed, looked up): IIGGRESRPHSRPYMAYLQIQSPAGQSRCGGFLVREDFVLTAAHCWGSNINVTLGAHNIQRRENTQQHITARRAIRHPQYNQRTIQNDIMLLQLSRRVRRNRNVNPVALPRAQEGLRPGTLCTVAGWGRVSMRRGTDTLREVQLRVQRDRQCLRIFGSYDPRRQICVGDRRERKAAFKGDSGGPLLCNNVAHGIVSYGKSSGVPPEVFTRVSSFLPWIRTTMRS

[2] = biological target: Chymotrypsin (2.5 nM), Novo Nordisk A/S
[3] = biological target: Leukocyte Elastase, purified at Novo Nordisk A/S using the method of Baugh and Travis
[4] = biological target: Trypsin (8 nM), Novo Nordisk A/S, Bagsvaerd, Denmark
[5] = biological target: Urokinase (5 nM), Serono, Freigung, Germany
[6] = biological target: glandular kallikrein (1 U/ml), Sigma, St Louis, MO
[7] = biological target: plasma kallikrein (3 nM), Kabi

- % Inhibition [1]: 16%
- % Inhibition [2]: 94%
- % Inhibition [3]: 6%
- % Inhibition (Plasmin (10 nM), Kabi): 90%
- % Inhibition [4]: 99.7%
- % Inhibition [5]: 0%
- % Inhibition [6]: 82%
- % Inhibition [7]: 71%
B1: Kunitz-type inhibitor domain of the amyloid protein precursor (protein)
chain: EVCSEQAETGPCRAMISRWYFDVTEGKCAPFFYGGCGGNRNNFDTEEYCMAVCGSA
